Experimental data: patent US12404345B2, “Humanized antibodies against iRHOM2” (SCIRHOM GMBH, priority 2021, dated 2025)

Biological target: T1, endogenous iRhom2 on THP-1 cells (Homo sapiens, UniProt Q6PJF5)
T1 construct: THP-1 cells, a human monocytic cell line endogenously expressing both iRhom2 and iRhom1; host or cells: THP-1
T1 sequence (Q6PJF5 1-856): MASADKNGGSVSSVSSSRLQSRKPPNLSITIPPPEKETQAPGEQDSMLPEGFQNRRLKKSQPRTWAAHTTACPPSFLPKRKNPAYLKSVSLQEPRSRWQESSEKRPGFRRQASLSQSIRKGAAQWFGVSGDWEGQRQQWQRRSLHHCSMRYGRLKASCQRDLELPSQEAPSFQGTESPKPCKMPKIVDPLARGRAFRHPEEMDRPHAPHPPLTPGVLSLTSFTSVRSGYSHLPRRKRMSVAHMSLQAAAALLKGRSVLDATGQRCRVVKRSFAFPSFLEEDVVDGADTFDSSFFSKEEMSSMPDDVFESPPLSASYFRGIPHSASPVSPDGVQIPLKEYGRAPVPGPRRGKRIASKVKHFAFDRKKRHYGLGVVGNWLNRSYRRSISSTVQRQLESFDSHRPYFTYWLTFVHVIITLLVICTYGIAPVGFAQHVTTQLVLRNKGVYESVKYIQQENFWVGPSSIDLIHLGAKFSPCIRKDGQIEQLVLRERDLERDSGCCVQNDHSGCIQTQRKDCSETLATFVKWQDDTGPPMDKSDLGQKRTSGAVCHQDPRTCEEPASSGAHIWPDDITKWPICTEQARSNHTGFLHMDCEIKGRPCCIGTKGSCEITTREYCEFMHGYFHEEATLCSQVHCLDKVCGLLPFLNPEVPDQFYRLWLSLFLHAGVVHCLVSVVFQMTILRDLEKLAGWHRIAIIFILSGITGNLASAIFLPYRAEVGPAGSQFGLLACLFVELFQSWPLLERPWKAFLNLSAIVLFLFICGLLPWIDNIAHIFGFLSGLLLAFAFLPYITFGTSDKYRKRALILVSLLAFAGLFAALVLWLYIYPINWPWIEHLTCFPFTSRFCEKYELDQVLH
Assay: FACS binding to THP-1 cells endogenously expressing iRhom2 and iRhom1
Details: antibody at 3 μg/ml
Protocol: In this study, binding specificity analyses of the humanized antibody 42-B-02 as a representative example of the antibodies of the invention in cell lines endogenously expressing iRhom2 were performed. The studies were conducted on RPMI-8226 cells, a human B lymphocytic cell line endogenously expressing iRhom2 but being endogenously negative for iRhom1, on THP-1 cells, a human monocytic cell line endogenously expressing both iRhom2 and iRhom1 and on RH-30 cells, a human […] cell line endogenously negative for iRhom2 but endogenously expressing iRhom1.
In brief, human RPMI-8226 cells (Deutsche Sammlung von Mikroorganismen und Zellkulturen, Germany), THP-1 cells (American Type Culture Collection, USA) and RH-30 cells (Deutsche Sammlung von Mikroorganismen und Zellkulturen, Germany) were harvested with 10 mM EDTA in PBS, washed and resuspended in FACS buffer (PBS, 3% FBS, 0.05% sodium azide), and seeded in Nunc U-bottom 96-well plates (Thermo Fisher Scientific, USA) at approximately 2×10^5 cells per well. In order to pellet cells and remove supernatants, the plates were centrifuged at 1,500 rpm and 4° C. for 3 minutes. […] Finally, cells were resuspended in 150 μl per well of FACS buffer and analyzed using a BD Accuri™ C6 Plus flow cytometer (Becton Dickinson, Germany).

B1: 42-B-02: humanized antibody binding human iRhom2; HCVD SEQ ID NO 33, LCVD SEQ ID NO 37 (antibody, V domains shown)
VH: QVTLRESGPALVKPTQTLTLTCTFSGFSLSTFGRGVGWIRQPPGKALEWLAHIWWDDEKYYNSALKSRLTISKDTSKNQVVLTITNMDPVDTATYYCARIQNYGSNYWYFDVWGQGTLVTVSS
VL: AIQLTQSPSSLSASVGDRVTITCRASSRISYMFWYQQKPGKAPKVLIYDTSNLASGVPSRFSGSGSGTDYTLTISSLQPEDFATYYCQQWNSYPLTFGQGTKLEIK
modifications: antibody sequences
  binding to THP-1 cells (endogenously expressing iRhom2 and iRhom1): strong binding
